These results are taken from US20240343823A1 (Ablynx, published 2024).

Usually EC50 stands for the concentration that produces a half-maximal response. Higher therefore signals a need for much substance. The term koff denotes the rate constant with which the complex falls apart. In general, Kd refers to the concentration at which binding is half-saturated.

Changes are numbered by the printed parent chain. Read-outs that look alike come from different tables or passages of the source.

Assay [1] deals with T1, human GPC3 on tumor cell lines (HepG2, Huh-7, NCI-H661, MKN-45, NCI-H23, BxPC-3, NCI-H292) (human, UniProt P51654 25-554).
T1 construct: Endogenous GPC3 of human cancer cell lines; also called GPC3 on HepG2; GPC3 on Huh-7
Kind of assay: flow cytometry on HepG2 cells.

The target of assay [2] is T1, human GPC3 on tumor cell lines (HepG2, …). Description: flow cytometry on Huh-7 cells. On the technique in general: Flow cytometry measures light scatter and fluorescence of single cells or particles in a stream.
Assay [3] has as its target T2, cyno GPC3 expressed on CHO Flp-In cells (cynomolgus).
T2 construct: range 3-559; On cells; also called cyGPC3 CHO; CHO-cGPC3
Description: flow cytometry on CHO Flp-In cyno GPC3 cells.

The target in assay [4] is T3, cyno Glypican-3 delta-GPI-HIS, in-house produced (cynomolgus).
T3 construct: range 3-559; also called cyno GPC3; cyGPC3
Description: SPR ProteOn XPR36, periplasmic extract over coated cyno GPC3. Here is the method:
(§1) Off-rates of ISVDs were determined on a ProteOn XPR36 instrument (Bio-Rad Laboratories, Inc.). ProteOn GLC Sensor Chips were coated with cyno Glypican-3 AGPI-HIS (in-house produced; accession number P51654; Q3-R358; S359-H559) and human GPC3 (R&D Systems, cat nr. 2119-GP). Periplasmic extracts were diluted 1:10 in ProteOn PBS Tween buffer (PBS, pH 7.4, 0.005% Tween 20 (167-2720, BioRad)). Experiments were carried out at 25° C. Data obtained was double referenced by reference lane subtraction as well as subtraction of a blank buffer injection. Processed curves were used for off-rate analysis based on the Langmuir dissociation (off-rate analysis) model.

The target in assay [5] is T4, recombinant human Glypican-3 (R&D Systems, cat nr. 2119-GP) (human, UniProt P51654 25-559).
T4 construct: Bought protein; also called human GPC3; hGPC3
Kind of assay: SPR ProteOn XPR36, periplasmic extract over coated human GPC3. Here is the method:
as §1

In assay [6] the target is T2, cyno GPC3 expressed on CHO Flp-In cells. Description: flow cytometry, periplasmic extract on CHO Flp-In cyno GPC3 against parental CHO. Here is the method:
(§2) Periplasmic extracts were screened for human and cyno GPC3 binding in flow cytometry using CHO Flp-In cells (Invitrogen cat nr. K6010) expressing either human GPC3 (accession number P51654; Q25-R358, S359-H580) or cyno GPC3 (accession number P51654; Q3-R358; S359-H559), respectively. In brief, 1×10⁵ cells were incubated in 1:5 diluted periplasmic extracts for 30 min at 4° C., and then washed 3 times. As a control, the parental CHO Flp-In cell line (Invitrogen cat nr. K6010) was included. […] Samples were washed and resuspended in FACS Buffer (D-PBS (Gibco) with 10% FBS (Sigma) and 0.05% sodium azide (Merck)) supplemented with 5 nM TOPRO3 (Molecular Probes, cat nr T3605). Cell suspensions were then analyzed on a FACS Array. Gating was set on live, intact cells using forward/side scatter and TOPRO3 channel fluorescence parameters.

For assay [7], the target named is T5, human GPC3 expressed on CHO Flp-In cells (human, UniProt P51654 25-554).
T5 construct: On cells; Q25-R358, S359-H580; also called hGPC3 CHO; CHO huGPC3
Description: flow cytometry, periplasmic extract on CHO Flp-In human GPC3 against parental CHO. Here is the method:
as §2

Assay [8] addresses T6, human serum albumin (Sigma cat no A8763) (human, UniProt P02768 25-609).
T6 construct: also called HSA
Description: SPR ProteOn XPR36, serum albumin immobilized by amine coupling, 1:1 model. The method, then: (§3) Serum albumin proteins were immobilized on a GLC Sensor Chip (Biorad) via amine coupling, using EDC and NHS chemistry (running buffer: HBS-EP+, pH 7.4). Purified ISVDs were injected for 2 minutes (flow rate 45 μL/min) at different concentrations (between 0.24 nM and 500 nM) and dissociation was followed for 900 s. Regeneration was performed by injecting 10 mM Glycine-HCl (pH 1.5) for 47 seconds (flow rate 100 μL/min). Data was double referenced by subtracting a reference ligand lane and a blank buffer injection. Processed sensorgrams were analyzed based on the 1:1 interaction model (Langmuir binding model) using ProteOn Manager 3.1.0 (Version 3.1.0.6) software.

The target in assay [9] is T7, cyno serum albumin (in house produced from animal tissue) (cynomolgus).
T7 construct: also called cynomolgus serum albumin
T7 sequence (A2V9Z4 25-608): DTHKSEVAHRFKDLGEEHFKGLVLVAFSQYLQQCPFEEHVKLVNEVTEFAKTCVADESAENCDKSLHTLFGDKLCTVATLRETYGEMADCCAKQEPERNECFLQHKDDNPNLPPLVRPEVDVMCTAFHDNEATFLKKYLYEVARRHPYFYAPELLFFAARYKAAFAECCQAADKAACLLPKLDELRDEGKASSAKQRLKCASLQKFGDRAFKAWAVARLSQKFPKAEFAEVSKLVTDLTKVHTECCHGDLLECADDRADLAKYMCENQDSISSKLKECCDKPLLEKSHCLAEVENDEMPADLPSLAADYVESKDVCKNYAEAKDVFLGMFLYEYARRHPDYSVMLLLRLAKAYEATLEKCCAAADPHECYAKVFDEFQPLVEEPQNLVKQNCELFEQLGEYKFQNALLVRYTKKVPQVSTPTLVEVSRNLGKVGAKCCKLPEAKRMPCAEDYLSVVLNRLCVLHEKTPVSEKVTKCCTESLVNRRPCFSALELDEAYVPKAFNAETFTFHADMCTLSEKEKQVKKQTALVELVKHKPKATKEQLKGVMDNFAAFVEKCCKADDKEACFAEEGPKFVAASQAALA
Described as above. The method, then:
as §3

Assay [10] concerns the target mouse serum albumin (DivBioScience cat no IMSA) (mouse, UniProt P07724 25-608). The description is as above. The method, then:
as §3

Assay [11] has as its target T1, human GPC3 on tumor cell lines (HepG2, …). Kind of assay: flow cytometry on HepG2 cells. This is another data set of the same source.
Assay [12] has the same target. Kind of assay: flow cytometry on Huh-7 cells. This is another data set of the same source.
Assay [13] has the same target. Kind of assay: flow cytometry on HepG2 and Huh-7 cells. Here is the method:
as §2
Variants were evaluated for binding to HepG2, Huh-7 and CHO Flip-In cyno-GPC3 cells by flow cytometry, as described in Example 1.

Assay [14] has as its target T2, cyno GPC3 expressed on CHO Flp-In cells. Kind of assay: flow cytometry on CHO Flp-In cyno GPC3 cells. The source holds these as a separate data set.
Assay [15] shares this target. Kind of assay: flow cytometry on CHO Flp-In cyno GPC3 cells. The source holds these as a separate data set.
Assay [16] addresses T1, human GPC3 on tumor cell lines (HepG2, …). Description: cell-based or functional assay.

Chain of mouse serum albumin (DivBioScience cat no IMSA) (P07724 25-608 limits assumed): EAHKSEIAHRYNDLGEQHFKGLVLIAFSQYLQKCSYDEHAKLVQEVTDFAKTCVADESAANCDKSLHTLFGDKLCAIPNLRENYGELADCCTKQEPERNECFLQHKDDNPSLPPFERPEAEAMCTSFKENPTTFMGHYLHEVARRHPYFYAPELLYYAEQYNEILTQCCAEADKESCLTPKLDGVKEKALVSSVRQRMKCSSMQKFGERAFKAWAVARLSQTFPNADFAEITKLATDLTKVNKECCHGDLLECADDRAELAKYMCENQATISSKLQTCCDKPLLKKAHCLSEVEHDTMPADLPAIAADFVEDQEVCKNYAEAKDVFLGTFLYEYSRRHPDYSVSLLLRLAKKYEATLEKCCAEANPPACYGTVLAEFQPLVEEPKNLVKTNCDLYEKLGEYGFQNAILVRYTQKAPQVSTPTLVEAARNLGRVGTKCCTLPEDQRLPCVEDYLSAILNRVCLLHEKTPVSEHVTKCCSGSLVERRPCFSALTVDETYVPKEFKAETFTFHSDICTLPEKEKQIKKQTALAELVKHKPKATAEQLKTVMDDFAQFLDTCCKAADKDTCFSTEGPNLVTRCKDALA

B1: A0226015A08 (VHH)
VHH: EVQLVESGGGLVQAGGSLRLSCVASGSIFRSVFSSSTMEWYRQPPGKKRELVARIAPGDGTNYGALYADSVKGRFTISRDDAKKTVDLQMNSLKPEDTGVYFCASGVAWGQGTLVTVSS
notes: Parental ISVD; also called A02260015A08; anti-GPC3 ISVD
Take B1: the EC50 is 7.5 nM in [1], 6.6 nM in assay [2] and 7.8 nM in [3]. Moreover, the koff in assay [4] amounted to 0.0004 s⁻¹; in [5], 0.00033 s⁻¹. Besides, the “Ratio MFI cyGPC3 CHO/CHO” value in assay [6] worked out at 13.7. The “Ratio MFI hGPC3 CHO/CHO” value in assay [7] amounted to 58.2.

B2: ALB223 (VHH)
VHH: EVQLVESGGGVVQPGGSLRLSCAASGFTFRSFGMSWVRQAPGKGPEWVSSISGSGSDTLYADSVKGRFTISRDNSKNTLYLQMNSLRPEDTALYYCTIGGSLSRSSQGTLVTVSS
notes: also called ALB23002-A
As to B2, the Kd in assay [8] is 0.88 nM; in assay [9], 0.57 nM; in [10], 5.3 nM.

B3: A022600345 (VHH)
VHH: EVQLVESGGGVVQPGGSLRLSCAASGFTFSSFAMTWVRRPPGKGLEWVATITNAGVTSYADSVKGRFTISRDNAKNTLYLQMNSLRPEDTALYICANARRTGPRAPTDIGSYRGQGTLVTVSS
On to B3, for which the EC50 amounted to 0.391 nM in [11], 0.276 nM in [12] and 0.15 nM in assay [15]. The “fold increase in binding potency against parental A0226018C08” value in assay [13] and in assay [14] was 2 fold each time.

B4: A022600351 (VHH)
VHH: B3 VHH with A54K
notes: also called A0226000351
As for B4, the EC50 is 0.431 nM in assay [11], 0.477 nM in assay [12] and 0.21 nM in assay [15]. The “fold increase in binding potency against parental A0226018C08” value in assay [13] and in assay [14] was 2 fold in each case.

B5: A0226018C08 (VHH)
VHH: B3 VHH with V11L, A23V, A54G, A60R, Q81E, N83T, R86N, L92V
notes: Parental ISVD; also called A02260018C08; anti-GPC3 ISVD
Consider B5, for which the EC50 worked out at 0.915 nM in assay [11], 0.696 nM in [12] and 0.49 nM in assay [15]. Moreover, the koff in assay [4] is 0.0011 s⁻¹; in assay [5], 0.00097 s⁻¹. Further, the “Ratio MFI cyGPC3 CHO/CHO” value in [6] is 19.9. For the same molecule, the “Ratio MFI hGPC3 CHO/CHO” value in assay [7] came out at 159.

B6: A022600314 (VHH)
VHH: EVQLVESGGGVVQPGGSLRLSCAASGSIFRSVFSSSTMEWYRQAPGKKRELVARIAPGEGTYYGALYADSVKGRFTISRDNAKNTVYLQMNSLRPEDTALYYCASGVAWGQGTLVTVSS
notes: also called A0226000314
On to B6, for which the EC50 in assay [1] worked out at 16 nM; in assay [2], 9.3 nM; in assay [3] it was 12 nM. In addition, the “fold decrease in binding potency against parental A0226015A08” value in assay [13] and in assay [14] was below 2 fold each time.

B7: A022600031 (bispecific antibody)
chain: DVQLVESGGGLVQPGGSLRLSCVASGDVHKINFLGWYRQAPGKEREKVAHISIGDQTDYADSAKGRFTISRDESKNMVYLQMNSLKPEDTAVYFCRAFSRIYPYDYWGQGTLVTVSSGGGGSGGGGSGGGGSGGGGSGGGGSGGGGSGGGGSEVQLVESGGGLVQAGGSLRLSCVASGSIFRSVFSSSTMEWYRQPPGKKRELVARIAPGDGTNYGALYADSVKGRFTISRDDAKKTVDLQMNSLKPEDTGVYFCASGVAWGQGTLVTVSSGGGGSGGGGSGGGGSGGGGSGGGGSGGGGSGGGGSEVQLVESGGGVVQPGGSLRLSCAASGLTFSSYAMGWFRQAPGKERERVVSISRGGGYTYYADSVKGRFTISRDNSENTVYLQMNSLRPEDTALYYCAAARYWATGSEYEFDYWGQGTLVTVSS
For the molecule B7, the “IC50 (M), Incucyte human TDC HepG2-Nuclight green assay” value in [16] was 1.5e-08 M.

B8: A022600027 (other)
chain: DVQLVESGGGLVQPGGSLRLSCVASGDVHKINFLGWYRQAPGKEREKVAHISIGDQTDYADSAKGRFTISRDESKNMVYLQMNSLKPEDTAVYFCRAFSRIYPYDYWGQGTLVTVSSGGGGSGGGGSGGGGSGGGGSGGGGSGGGGSGGGGSEVQLVESGGGLVQPGGSLRLSCVASGFTFSSFAMTWVRRPPGKGLEWVATITNGGVTSYRDSVKGRFTISRDNAKNTLYLEMTSLNPEDTAVYICANARRTGPRAPTDIGSYRGQGTLVTVSSGGGGSGGGGSGGGGSGGGGSGGGGSGGGGSGGGGSEVQLVESGGGVVQPGGSLRLSCAASGLTFSSYAMGWFRQAPGKERERVVSISRGGGYTYYADSVKGRFTISRDNSENTVYLQMNSLRPEDTALYYCAAARYWATGSEYEFDYWGQGTLVTVSS
On to B8, for which, in assay [16], the “IC50 (M), Incucyte human TDC HepG2-Nuclight green assay” value was 8.6e-09 M.
